Reference: publication PMC11189300

Experiments:
[1] = biological target: Mis12C^M3 (human), Q9H081
[2] = biological target: Mis12C^M4 (human), Q9H081
Chain of Mis12C^M4 (human), Q9H081 (Q9H081 whole entry, chain 1 of 4): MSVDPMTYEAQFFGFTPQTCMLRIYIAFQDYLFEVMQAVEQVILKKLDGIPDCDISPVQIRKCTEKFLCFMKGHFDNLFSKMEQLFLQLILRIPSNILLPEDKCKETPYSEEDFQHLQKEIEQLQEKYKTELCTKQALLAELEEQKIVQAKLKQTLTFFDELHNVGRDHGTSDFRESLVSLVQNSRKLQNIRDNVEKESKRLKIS
Chain of Mis12C^M4 (human), Q9H081 (Q6P1K2 whole entry, chain 2 of 4, further chain): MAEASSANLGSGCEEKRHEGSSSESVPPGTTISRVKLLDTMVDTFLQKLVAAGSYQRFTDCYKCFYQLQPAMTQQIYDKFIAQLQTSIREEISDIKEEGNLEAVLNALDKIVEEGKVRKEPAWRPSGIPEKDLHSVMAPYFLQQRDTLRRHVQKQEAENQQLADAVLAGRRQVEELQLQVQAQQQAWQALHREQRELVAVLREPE
Chain of Mis12C^M4 (human), Q9H081 (Q96IY1 whole entry, chain 3 of 4, further chain): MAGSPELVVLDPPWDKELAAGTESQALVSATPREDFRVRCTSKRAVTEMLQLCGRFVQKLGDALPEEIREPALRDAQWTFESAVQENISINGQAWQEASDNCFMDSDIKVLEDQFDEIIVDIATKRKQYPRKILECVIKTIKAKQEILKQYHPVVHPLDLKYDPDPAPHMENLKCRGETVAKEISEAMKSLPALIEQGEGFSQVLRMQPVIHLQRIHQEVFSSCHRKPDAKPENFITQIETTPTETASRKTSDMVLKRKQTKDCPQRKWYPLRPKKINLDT
Chain of Mis12C^M4 (human), Q9H081 (Q9H410 whole entry, chain 4 of 4, further chain): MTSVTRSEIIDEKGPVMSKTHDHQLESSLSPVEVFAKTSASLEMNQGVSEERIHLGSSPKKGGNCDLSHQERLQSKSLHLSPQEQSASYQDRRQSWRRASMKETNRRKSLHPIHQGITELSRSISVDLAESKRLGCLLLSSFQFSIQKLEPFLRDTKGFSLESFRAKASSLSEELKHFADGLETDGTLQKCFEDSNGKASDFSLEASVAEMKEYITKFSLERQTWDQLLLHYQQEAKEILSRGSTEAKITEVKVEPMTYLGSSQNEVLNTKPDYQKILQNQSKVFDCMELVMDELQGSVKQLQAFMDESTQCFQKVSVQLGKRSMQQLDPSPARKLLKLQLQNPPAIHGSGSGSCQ

Chain of Mis12C^M3 (human), Q9H081 (Q9H081 whole entry, chain 1 of 4): as the sequence (Q9H081 whole entry, chain 1 of 4) above
Chain of Mis12C^M3 (human), Q9H081 (Q6P1K2 whole entry, chain 2 of 4, further chain): as the sequence (Q6P1K2 whole entry, chain 2 of 4, further chain) above
Chain of Mis12C^M3 (human), Q9H081 (Q96IY1 whole entry, chain 3 of 4, further chain): as the sequence (Q96IY1 whole entry, chain 3 of 4, further chain) above
Chain of Mis12C^M3 (human), Q9H081 (Q9H410 whole entry, chain 4 of 4, further chain): as the sequence (Q9H410 whole entry, chain 4 of 4, further chain) above

B1: Ndc80 complex (Ndc80C): NDC80^HEC1, NUF2, SPC24, SPC25, O14777 1-642; Q9BZD4 1-464; Q8NBT2 1-197; Q9HBM1 1-224 (complex)
chain 1: MKRSSVSSGGAGRLSMQELRSQDVNKQGLYTPQTKEKPTFGKLSINKPTSERKVSLFGKRTSGHGSRNSQLGIFSSSEKIKDPRPLNDKAFIQQCIRQLCEFLTENGYAHNVSMKSLQAPSVKDFLKIFTFLYGFLCPSYELPDTKFEEEVPRIFKDLGYPFALSKSSMYTVGAPHTWPHIVAALVWLIDCIKIHTAMKESSPLFDDGQPWGEETEDGIMHNKLFLDYTIKCYESFMSGADSFDEMNAELQSKLKDLFNVDAFKLESLEAKNRALNEQIARLEQEREKEPNRLESLRKLKASLQGDVQKYQAYMSNLESHSAILDQKLNGLNEEIARVELECETIKQENTRLQNIIDNQKYSVADIERINHERNELQQTINKLTKDLEAEQQKLWNEELKYARGKEAIETQLAEYHKLARKLKLIPKGAENSKGYDFEIKFNPEAGANCLVKYRAQVYVPLKELLNETEEEINKALNKKMGLEDTLEQLNAMITESKRSVRTLKEEVQKLDDLYQQKIKEAEEEDEKCASELESLEKHKHLLESTVNQGLSEAMNELDAVQREYQLVVQTTTEERRKVGNNLQRLLEMVATHVGSVEKHLEEQIAKVDREYEECMSEDLSENIKEIRDKYEKKATLIKSSEE
chain 2: METLSFPRYNVAEIVIHIRNKILTGADGKNLTKNDLYPNPKPEVLHMIYMRALQIVYGIRLEHFYMMPVNSEVMYPHLMEGFLPFSNLVTHLDSFLPICRVNDFETADILCPKAKRTSRFLSGIINFIHFREACRETYMEFLWQYKSSADKMQQLNAAHQEALMKLERLDSVPVEEQEEFKQLSDGIQELQQSLNQDFHQKTIVLQEGNSQKKSNISEKTKRLNELKLSVVSLKEIQESLKTKIVDSPEKLKNYKEKMKDTVQKLKNARQEVVEKYEIYGDSVDCLPSCQLEVQLYQKKIQDLSDNREKLASILKESLNLEDQIESDESELKKLKTEENSFKRLMIVKKEKLATAQFKINKKHEDVKQYKRTVIEDCNKVQEKRGAVYERVTTINQEIQKIKLGIQQLKDAAEREKLKSQEIFLNLKTALEKYHDGIEKAAEDSYAKIDEKTAELKRKMFKMST
chain 3: MAAFRDIEEVSQGLLSLLGANRAEAQQRRLLGRHEQVVERLLETQDGAEKQLREILTMEKEVAQSLLNAKEQVHQGGVELQQLEAGLQEAGEEDTRLKASLLQLTRELEELKEIEADLERQEKEVDEDTTVTIPSAVYVAQLYHQVSKIEWDYECEPGMVKGIHHGPSVAQPIHLDSTQLSRKFISDYLWSLVDTEW
chain 4: MVEDELALFDKSINEFWNKFKSTDTSCQMAGLRDTYKDSIKAFAEKLSVKLKEEERMVEMFLEYQNQISRQNKLIQEKKDNLLKLIAEVKGKKQELEVLTANIQDLKEEYSRKKETISTANKANAERLKRLQKSADLYKDRLGLEIRKIYGEKLQFIFTNIDPKNPESPFMFSLHLNEARDYEVSDSAPHLEGLAEFQENVRKTNNFSAFLANVRKAFTATVYN
- kinetochore levels of endogenous Ndc80C (NDC80^HEC1 immunofluorescence) in HeLa cells depleted of endogenous Mis12C and electroporated with the mutant Mis12C [1]: 50 % reduction
- kinetochore levels of endogenous Ndc80C (NDC80^HEC1 immunofluorescence) in HeLa cells depleted of endogenous Mis12C and electroporated with the mutant Mis12C [2]: 50 % reduction
